Experiment [1] concerns the target T1, H7CRECD human IgG1 Fc fusion protein (human, UniProt Q96BF3 23-150).
T1 construct: also called H7CR fusion protein; not shown: human IgG1 Fc
T1 sequence: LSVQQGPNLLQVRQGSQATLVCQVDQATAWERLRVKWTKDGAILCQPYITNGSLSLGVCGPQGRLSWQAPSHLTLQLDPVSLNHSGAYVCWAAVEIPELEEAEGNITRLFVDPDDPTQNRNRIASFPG
Briefly: ELISA, H7CRECD human IgG1 Fc immobilized, anti-human IgG4 HRP detection. The procedure: 100 μl 1 μg/ml H7CRECD human IgG1 Fc fusion protein diluted in PBS was immobilized on flat bottom 96 well plate (Costar 9017) overnight at 4° C. Plates were washed twice with PBS+0.1% PS-20 and blocked with 200 μl/well PBS 10% FBS at RT for 1 hr. 100 μl human IgG4 Fc chimeric 1.3 and 14 selected 1.3 humanized variants diluted in PBS 10% FBS were added to each well and incubated at RT for 1 hr. Plates were washed three times and 100 μl 1 μg/ml anti-human IgG4 HRP (Southern Biotech) was added to each well and incubated at RT for 1 hr. Plates were washed six times and 100 μl TMB substrate (SurModics) was added to each well for 5-15 mins. 100 μl stop solution (0.1M Sulfuric acid) was added to each well. Plates were read at Absorbance 450 nm by PerkinElmer EnVision 2104 Multilabel Reader.
For orientation: ELISA stands for enzyme-linked immunosorbent assay.

For experiment [2], the target named is T2, human H7CR (B7-H7 counter-receptor) (human, UniProt Q96BF3 23-282).
T2 construct: Used for H7CR on CHO.hH7CR transfectants, human T cells and tonsil tissue; also called B7-H7CR; CD28H
T2 sequence: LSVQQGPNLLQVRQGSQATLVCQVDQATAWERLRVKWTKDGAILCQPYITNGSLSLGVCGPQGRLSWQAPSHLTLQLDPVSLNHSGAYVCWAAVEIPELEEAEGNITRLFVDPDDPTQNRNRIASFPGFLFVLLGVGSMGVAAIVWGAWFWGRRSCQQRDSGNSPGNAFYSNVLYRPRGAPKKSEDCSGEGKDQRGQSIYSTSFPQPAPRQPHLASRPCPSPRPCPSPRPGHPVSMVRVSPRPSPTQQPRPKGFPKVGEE
Briefly: flow cytometry titration on CHO.hH7CR transfectants, one-site specific binding fit of MFI. The procedure:
(§1) A serial dilution of chimeric 1.3 and 4.5 of 0, 0.1 ng, 0.3 ng, 1 ng, 3 ng, 10 ng, 30 ng, 100 ng, 300 ng, 1 μg, 3 μg and 10 μg were added to the cells and incubated at 4° C. for 30 min. Cells were then washed twice with 2 ml flow cytometry buffer, and resuspended in 100 μl flow cytometry buffer. 1 μl anti-hIg PE secondary antibody (Biolegend) was added and incubated with the cells for 15 mins Samples were then washed and resuspended in 100 μl flow cytometry buffer. Flow Cytometry data was acquired using BD Canto (BD Biosciences) in plate format and analyzed by FlowJo software. Staining data (MFI) was then input into Prism 5 software to generate binding curve. Curve-fit using one-site specific binding algorithm calculates individual KD for each antibody.
On the technique in general: In flow cytometry, cells or beads pass a laser one at a time.

In experiment [3] the target is T2, human H7CR (B7-H7 counter-receptor). In words: flow cytometry, MFI against antibody concentration on human naive CD4+CD45RA+ T cells, anti-hIg PE secondary antibody, one-site specific binding fit. As for the experimental part: as §1
Experiment [4] shares this target. Briefly: flow cytometry, MFI against antibody concentration on human naive CD8+CD45RA+ T cells, anti-hIg PE secondary antibody, one-site specific binding fit. As for the experimental part:
as §1

As usually defined, the EC50 is the midpoint of the concentration-response curve. High values mean a less potent agent, low ones a more potent agent. Usually Kd stands for a measure of binding affinity in units of concentration.

B1: 1.3 humanized variant V8 (heavy 1C / light 1B) (antibody, V domains shown)
VH: QVQLQESGPGLVKPSQTLSLTCTVSGFSISTSGYYWSWIRQFPGKRLEWMGYINYGGGTSYNPSLKSRVTISRDTSKNQFSLKLSSVTAADTATYCCATMADRFAFFDVWGQGTMVTVSS
VL: DIVMTQSPDSLAVSLGERATINCKSSQSLFSSNTNRNYLNWYQQKPGQSPKLLIYHASTRLSGVPDRFSGSGSGTDFTLTISSLQAEDVADYYCQHHYETPLTFGDGTKLEIK
notes: Variable domains only; detected with anti-human IgG4 HRP
In experiment [1], B1 showed a 50% effective concentration (EC50) of 0.74 nM.

B2: 1.3 humanized variant V4 (heavy 2A / light 1A) (antibody, V domains shown)
VH: QVQLQESGPGLVKPAQTLSLTCTVSGFSISTSGYYWSWIRQYPGKGLEWIGYINYGGGTYYNPSLKSRVTISVDTSKNQFSLKLTSVTAADTAVYHCATMADRFAFFDVWGQGTMVTVSS
VL: DIVMTQSPDSLAVSLGERATINCKSSQSLFSSNTNRNYLAWYQQKPGQPPKLLIYHASTRESGVPDRFSGSGSGTDFTLTISSLQAEDVAVYYCQHHYETPLTFGQGTKLEIK
notes: as for B1
For B2, in experiment [1], the midpoint of the response, the EC50, lay at 1.08 nM.

B3: 1.3 humanized variant V5 (heavy 2B / light 1A) (antibody, V domains shown)
VH: QVQLQESGPGLVKPAQTLSLTCTVSGFSISTSGYYWSWIRQYPGKRLEWIGYINYGGGTSYNPSLKSRVTISRDTSKNQFSLKLTSVTAADTATYCCATMADRFAFFDVWGQGTMVTVSS
VL: DIVMTQSPDSLAVSLGERATINCKSSQSLFSSNTNRNYLAWYQQKPGQPPKLLIYHASTRESGVPDRFSGSGSGTDFTLTISSLQAEDVAVYYCQHHYETPLTFGQGTKLEIK
notes: as for B1
Molecule B3 showed an EC50 in experiment [1] of 0.28 nM. Compared with the last molecule, the EC50 is about 3.9-fold lower.

B4: 1.3 humanized variant V2 (heavy 1B / light 1A) (antibody, V domains shown)
VH: QVQLQESGPGLVKPSQTLSLTCTVSGFSISTSGYYWSWIRQHPGKRLEWIGYINYGGGTSYNPSLKSRVTISRDTSKNQFSLKLSSVTAADTAVYCCATMADRFAFFDVWGQGTMVTVSS
VL: DIVMTQSPDSLAVSLGERATINCKSSQSLFSSNTNRNYLAWYQQKPGQPPKLLIYHASTRESGVPDRFSGSGSGTDFTLTISSLQAEDVAVYYCQHHYETPLTFGQGTKLEIK
notes: as for B1
B4: in experiment [1], the midpoint of the response, the EC50, lay at 0.23 nM.

B5: 1.3 humanized variant V3 (heavy 1C / light 1A) (antibody, V domains shown)
VH: QVQLQESGPGLVKPSQTLSLTCTVSGFSISTSGYYWSWIRQFPGKRLEWMGYINYGGGTSYNPSLKSRVTISRDTSKNQFSLKLSSVTAADTATYCCATMADRFAFFDVWGQGTMVTVSS
VL: DIVMTQSPDSLAVSLGERATINCKSSQSLFSSNTNRNYLAWYQQKPGQPPKLLIYHASTRESGVPDRFSGSGSGTDFTLTISSLQAEDVAVYYCQHHYETPLTFGQGTKLEIK
notes: as for B1
As to B5, the EC50 in experiment [1] was 0.38 nM.

B6: 1.3 humanized variant V7 (heavy 1B / light 1B) (antibody, V domains shown)
VH: QVQLQESGPGLVKPSQTLSLTCTVSGFSISTSGYYWSWIRQHPGKRLEWIGYINYGGGTSYNPSLKSRVTISRDTSKNQFSLKLSSVTAADTAVYCCATMADRFAFFDVWGQGTMVTVSS
VL: DIVMTQSPDSLAVSLGERATINCKSSQSLFSSNTNRNYLNWYQQKPGQSPKLLIYHASTRLSGVPDRFSGSGSGTDFTLTISSLQAEDVADYYCQHHYETPLTFGDGTKLEIK
notes: as for B1
With B6, the EC50 in experiment [1] was determined as 1.01 nM. This EC50 lies about 2.7-fold higher than the previous one.

B7: 1.3 humanized variant V14 (heavy 2C / light 1C) (antibody, V domains shown)
VH: QVQLQESGPGLVKPAQTLSLTCTVSGFSISTSGYYWSWIRQFPGKRLEWMGYINYGGGTSYNPSLKSRVTISRDTSKNQFSLKLTSVTAADTATYCCATMADRFAFFDVWGQGTMVTVSS
VL: DIVMTQSPDSLAVSLGERATINCLSSQSLFSSNTNRNYLNWYLQKPGQSPKLLIYHASTRLSGVPDRFIGSGSGTDFTLTISSLQAEDVGDYYCQHHYETPLTFGDGTKLEIK
notes: as for B1
On to B7, for which, in experiment [1], the EC50 amounted to 0.32 nM.

B8: 1.3 humanized variant V10 (heavy 2C / light 1B) (antibody, V domains shown)
VH: QVQLQESGPGLVKPAQTLSLTCTVSGFSISTSGYYWSWIRQFPGKRLEWMGYINYGGGTSYNPSLKSRVTISRDTSKNQFSLKLTSVTAADTATYCCATMADRFAFFDVWGQGTMVTVSS
VL: DIVMTQSPDSLAVSLGERATINCKSSQSLFSSNTNRNYLNWYQQKPGQSPKLLIYHASTRLSGVPDRFSGSGSGTDFTLTISSLQAEDVADYYCQHHYETPLTFGDGTKLEIK
notes: as for B1
Regarding B8, in experiment [1], the EC50 came to 1.18 nM.

B9: 1.3 humanized variant V9 (heavy 2B / light 1B) (antibody, V domains shown)
VH: QVQLQESGPGLVKPAQTLSLTCTVSGFSISTSGYYWSWIRQYPGKRLEWIGYINYGGGTSYNPSLKSRVTISRDTSKNQFSLKLTSVTAADTATYCCATMADRFAFFDVWGQGTMVTVSS
VL: DIVMTQSPDSLAVSLGERATINCKSSQSLFSSNTNRNYLNWYQQKPGQSPKLLIYHASTRLSGVPDRFSGSGSGTDFTLTISSLQAEDVADYYCQHHYETPLTFGDGTKLEIK
notes: as for B1
Turning to B9, the EC50 in experiment [1] was 2.43 nM.

B10: 1.3 humanized variant V13 (heavy 2B / light 1C) (antibody, V domains shown)
VH: QVQLQESGPGLVKPAQTLSLTCTVSGFSISTSGYYWSWIRQYPGKRLEWIGYINYGGGTSYNPSLKSRVTISRDTSKNQFSLKLTSVTAADTATYCCATMADRFAFFDVWGQGTMVTVSS
VL: DIVMTQSPDSLAVSLGERATINCLSSQSLFSSNTNRNYLNWYLQKPGQSPKLLIYHASTRLSGVPDRFIGSGSGTDFTLTISSLQAEDVGDYYCQHHYETPLTFGDGTKLEIK
notes: as for B1
B10 registered an EC50 in experiment [1] of 0.45 nM. This EC50 is about 5.4-fold lower than that of the molecule before.

B11: 1.3 humanized variant V1 (heavy 1A / light 1A) (antibody, V domains shown)
VH: QVQLQESGPGLVKPSQTLSLTCTVSGFSISTSGYYWSWIRQHPGKGLEWIGYINYGGGTYYNPSLKSRVTISVDTSKNQFSLKLSSVTAADTAVYYCATMADRFAFFDVWGQGTMVTVSS
VL: DIVMTQSPDSLAVSLGERATINCKSSQSLFSSNTNRNYLAWYQQKPGQPPKLLIYHASTRESGVPDRFSGSGSGTDFTLTISSLQAEDVAVYYCQHHYETPLTFGQGTKLEIK
notes: Variable domains only; detected with anti-human IgG4 HRP; also called VI; variant 1
Regarding B11, the EC50 in experiment [1] came to 0.84 nM.

B12: 1.3 humanized variant V11 (heavy 1B / light 1C) (antibody, V domains shown)
VH: QVQLQESGPGLVKPSQTLSLTCTVSGFSISTSGYYWSWIRQHPGKRLEWIGYINYGGGTSYNPSLKSRVTISRDTSKNQFSLKLSSVTAADTAVYCCATMADRFAFFDVWGQGTMVTVSS
VL: DIVMTQSPDSLAVSLGERATINCLSSQSLFSSNTNRNYLNWYLQKPGQSPKLLIYHASTRLSGVPDRFIGSGSGTDFTLTISSLQAEDVGDYYCQHHYETPLTFGDGTKLEIK
notes: as for B1
B12: the EC50 in experiment [1] turned out to be 1.04 nM.

B13: 1.3 humanized variant V6 (heavy 2C / light 1A) (antibody, V domains shown)
VH: QVQLQESGPGLVKPAQTLSLTCTVSGFSISTSGYYWSWIRQFPGKRLEWMGYINYGGGTSYNPSLKSRVTISRDTSKNQFSLKLTSVTAADTATYCCATMADRFAFFDVWGQGTMVTVSS
VL: DIVMTQSPDSLAVSLGERATINCKSSQSLFSSNTNRNYLAWYQQKPGQPPKLLIYHASTRESGVPDRFSGSGSGTDFTLTISSLQAEDVAVYYCQHHYETPLTFGQGTKLEIK
notes: as for B1
As to B13, in experiment [1], the EC50 was determined as 0.3 nM.

B14: 1.3 humanized variant V12 (heavy 1C / light 1C) (antibody, V domains shown)
VH: QVQLQESGPGLVKPSQTLSLTCTVSGFSISTSGYYWSWIRQFPGKRLEWMGYINYGGGTSYNPSLKSRVTISRDTSKNQFSLKLSSVTAADTATYCCATMADRFAFFDVWGQGTMVTVSS
VL: DIVMTQSPDSLAVSLGERATINCLSSQSLFSSNTNRNYLNWYLQKPGQSPKLLIYHASTRLSGVPDRFIGSGSGTDFTLTISSLQAEDVGDYYCQHHYETPLTFGDGTKLEIK
notes: as for B1
In experiment [1], B14 registered an EC50 of 0.75 nM.

B15: human IgG4 Fc chimeric 1.3 antibody (antibody, V domains shown)
VH: QIQLQESGPGLVKPSQSLSLTCSVTGFSISTSGYYWTWIRQFPGKRLEWMGYINYGGGTSYNPSLKSRISITRDTSKNQFLLHLNSVTTEDTATYCCATMADRFAFFDVWGQGIQVTVSS
VL: DIVMTQSPSSLAVSAGEKVTISCLSSQSLFSSNTNRNYLNWYLQKPGQSPKLLIYHASTRLTGVPDRFIGSGSGTDFTLTISSVQAEDLGDYYCQHHYETPLTFGDGTKLEIKR
notes: also called parental chimeric 1.3 antibody
On to B15, for which, in experiment [1], the EC50 turned out to be 0.055 nM. Further, the results for the Kd in experiment [2], in experiment [3] and in experiment [4] were 5.9 nM, 24 nM and 27 nM, respectively.

B16: chimeric 4.5 antibody (antibody, human IgG4 S228P, kappa, V domains shown)
VH: QIQLQESGPGLVKPSQSLSLTCSVTGFSITTGGYYWNWIRQFPGKKLEWMGYIYTSGRTSYNPSLKSRISITRDTSKNQFFLQLNSMTTEDTATYYCADMADKGGWFAYWGQGTLVTVSS
VL: DIVMTQSPSSLAVSAGEKVTISCLSSQSLFSSNTKRNYLNWYLQKPGQSPKLLIYHASTRLTGVPGRFIGSGSGTDFTLTVSTVQAEDLGDYFCQQHYETPLTFGDGTRLEIKR
Consider B16, for which the Kd in experiment [2] came to 3.5 nM; in experiment [3], 6.9 nM; in experiment [4], 6.9 nM.

These data come from patent publication US20160024210A1 (AstraZeneca / MedImmune, published 2016).
